First the molecules themselves.
T1: human NPRA on HEK293 cells bound to ANP (human, UniProt P01160 124-151)
T1 sequence: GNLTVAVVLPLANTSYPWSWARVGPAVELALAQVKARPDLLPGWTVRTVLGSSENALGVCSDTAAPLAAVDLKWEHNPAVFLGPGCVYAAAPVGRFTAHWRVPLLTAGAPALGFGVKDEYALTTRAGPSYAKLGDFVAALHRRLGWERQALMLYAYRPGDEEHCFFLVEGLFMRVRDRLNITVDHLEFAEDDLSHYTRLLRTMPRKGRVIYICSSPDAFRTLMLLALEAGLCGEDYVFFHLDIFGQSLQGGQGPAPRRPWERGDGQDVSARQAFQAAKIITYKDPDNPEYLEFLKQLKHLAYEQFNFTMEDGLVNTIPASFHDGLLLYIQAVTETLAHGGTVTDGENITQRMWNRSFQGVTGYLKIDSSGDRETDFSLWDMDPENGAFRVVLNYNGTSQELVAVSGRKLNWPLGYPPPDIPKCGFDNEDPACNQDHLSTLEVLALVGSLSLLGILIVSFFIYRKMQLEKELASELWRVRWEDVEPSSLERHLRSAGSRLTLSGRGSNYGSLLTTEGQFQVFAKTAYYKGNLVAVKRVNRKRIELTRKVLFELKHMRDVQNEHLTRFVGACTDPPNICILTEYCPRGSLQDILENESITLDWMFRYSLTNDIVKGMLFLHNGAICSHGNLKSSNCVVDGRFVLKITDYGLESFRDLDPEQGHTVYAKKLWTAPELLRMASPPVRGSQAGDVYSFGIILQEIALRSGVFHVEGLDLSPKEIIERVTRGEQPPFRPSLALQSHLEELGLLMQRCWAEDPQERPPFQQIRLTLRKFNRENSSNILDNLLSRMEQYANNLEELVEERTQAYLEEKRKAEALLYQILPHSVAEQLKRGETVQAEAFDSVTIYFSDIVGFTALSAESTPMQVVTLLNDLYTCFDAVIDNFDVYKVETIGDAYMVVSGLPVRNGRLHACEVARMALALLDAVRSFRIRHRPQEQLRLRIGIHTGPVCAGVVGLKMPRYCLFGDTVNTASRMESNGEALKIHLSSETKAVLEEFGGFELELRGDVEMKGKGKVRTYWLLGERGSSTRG
T1 sequence (peptide): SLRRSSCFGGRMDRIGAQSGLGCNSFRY

T2: human NPRC on HEK293 cells, without added ligand (human, UniProt P17342 27-541)
T2 construct: whole, on cells; also called HEK NPRC cells; natriuretic peptide receptor C
T2 sequence (looked up): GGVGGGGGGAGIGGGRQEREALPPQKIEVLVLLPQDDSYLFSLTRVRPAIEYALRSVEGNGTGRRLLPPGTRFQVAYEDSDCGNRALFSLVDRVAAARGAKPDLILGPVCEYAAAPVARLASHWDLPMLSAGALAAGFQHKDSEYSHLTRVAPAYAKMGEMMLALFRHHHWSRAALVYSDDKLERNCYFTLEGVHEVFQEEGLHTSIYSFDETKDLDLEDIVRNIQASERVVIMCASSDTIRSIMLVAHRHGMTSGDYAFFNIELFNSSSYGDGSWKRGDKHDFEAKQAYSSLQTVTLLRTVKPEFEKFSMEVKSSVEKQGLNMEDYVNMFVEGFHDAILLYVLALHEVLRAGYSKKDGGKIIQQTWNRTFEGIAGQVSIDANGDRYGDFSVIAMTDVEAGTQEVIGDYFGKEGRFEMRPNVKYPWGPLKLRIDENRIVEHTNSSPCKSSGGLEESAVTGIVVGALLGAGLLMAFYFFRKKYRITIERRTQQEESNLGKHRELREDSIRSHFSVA

T3: human NPRC on HEK293 cells in the presence of BNP (human, UniProt P17342 27-541; P16860 103-134)
T3 construct: whole, on cells;mature; also called HEK NPRC cells + 100 nM BNP
T3 sequence (looked up): T2 sequence (looked up)
T3 sequence (peptide, looked up): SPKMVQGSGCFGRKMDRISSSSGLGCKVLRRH

T4: human NPRC on HEK293 cells in the presence of ANP (human, UniProt P17342 27-541; P01160 124-151)
T4 construct: whole, on cells;mature; also called HEK NPRC cells + 100 nM ANP
T4 sequence (looked up): T2 sequence (looked up)
T4 sequence (peptide, looked up): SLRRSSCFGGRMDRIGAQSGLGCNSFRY

B1: 5502 IgG4_Pro (antibody, V domains shown)
VH: QVQLQQSGPGLVKPSQTLSLTCAISGDSVSSRSASWSWIRQSPGRGLEWLGRIYYRSKWYNDYAVSVKSRITINPDTSKNQFSLQLNSVTPEDTAVYYCARMDVPSFRYFDVWGQGTLVTVSS
VL: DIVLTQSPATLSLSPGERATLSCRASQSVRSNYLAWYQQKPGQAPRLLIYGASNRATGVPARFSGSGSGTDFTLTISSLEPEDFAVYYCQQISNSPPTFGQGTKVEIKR
notes: Human IgG4_Pro
B2: 5591 IgG4_Pro (antibody, V domains shown)
VH: B1 VH with I53T, K58H, N61Y, D62E, V65Q
VL: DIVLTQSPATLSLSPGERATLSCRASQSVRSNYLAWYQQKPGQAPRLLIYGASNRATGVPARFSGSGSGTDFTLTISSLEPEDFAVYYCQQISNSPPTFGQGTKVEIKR
B3: 5592 IgG4_Pro (antibody, V domains shown)
VH: B1 VH with I53T, K58H, N61Y, D62E, V65Q
VL: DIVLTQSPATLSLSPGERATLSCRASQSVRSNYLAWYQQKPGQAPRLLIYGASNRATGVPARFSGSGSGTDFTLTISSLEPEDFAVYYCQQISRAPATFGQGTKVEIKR

Numbering of substitutions follows the chain as printed.

The first assay concerns the target T5, NPRA-Fc fusion protein bound to urodilatin (human, UniProt P01160 120-151).
T5 construct: Receptor-ligand complex; also called NPRA-Fc in the presence of urodilatin
In words: SPR (Biacore 3000), NPRA-Fc amine-coupled on CM5, IgG with 100 nM human urodilatin. For orientation: Surface plasmon resonance follows binding to a sensor surface in real time, without labels.
B1 showed an equilibrium dissociation constant (Kd) of 0.211 nM, a koff of 0.000448 s⁻¹ and a kon of 2.12e+06 M⁻¹ s⁻¹.
The molecule B2 gave a dissociation constant Kd of 0.0928 nM, a koff of 0.000238 s⁻¹ and a kon of 2.56e+06 M⁻¹ s⁻¹.
Taken in the same sequence, the figures for B3 were 0.0251 nM, 9.94e-05 s⁻¹ and 3.96e+06 M⁻¹ s⁻¹.

For the next assay, the target named is T6, NPRA-Fc fusion protein bound to ANP (human, UniProt P01160 124-151).
T6 construct: mature; Receptor-ligand complex; 'human ANP' is stated for Biacore, plain 'ANP' for ELISA and HXMS; also called NPRA-Fc+ANP
In words: SPR (Biacore 3000), NPRA-Fc amine-coupled on CM5, analyte with 100 nM human ANP.
Molecule B1 returned a Kd of 0.172 nM, a koff of 0.000283 s⁻¹ and a kon of 1.65e+06 M⁻¹ s⁻¹.
In the same order, the values of B2 are 0.0275 nM, 0.000107 s⁻¹ and 3.88e+06 M⁻¹ s⁻¹.
On to B3, for which the equilibrium dissociation constant (Kd) is 0.011 nM, the koff was determined as 0.000106 s⁻¹ and the kon turned out to be 9.59e+06 M⁻¹ s⁻¹.

The target in a further assay is T1, human NPRA on HEK293 cells bound to ANP. In words: cell-based or functional assay.
As for B1, the “fold increase in the potency of ANP (cGMP, HEK NPRA cells, 200 nM IgG4_Pro)” value is at most 10 fold.
Same read-out and setting: for B2 the value was at most 10 fold; for B3, at most 10 fold.

Another assay shares this target. In words: cell-based or functional assay. This is another data set of the same source.
With B1, the “cGMP EC50 (nM), titration of the antibody on HEK NPRA cells with 200 pM ANP” value came out at 2.1 nM.
Still for that read-out and setting: under B2 stands 0.5 nM; under B3, 1 nM.

The next assay deals with T2, human NPRC on HEK293 cells, without …. In words: FACS, HEK NPRC cells without ligand. For orientation: A flow cytometer gives signals particle by particle.
Description: (§1) HEK NPRA cells are detached with Accutase (PAA Laboratories GmbH, Cat. No. L11-007, Austria), harvested by centrifugation (900 rpm, 4 minutes) and resuspended in FACS buffer (PBS/3% FCS/0.02% NaN3) to a final concentration of 10⁶ cells/ml. 100 μl of the cell suspension is transferred to each well of a 96 round bottom plate (TC Microwell 96U, Nunc). […] Cells are washed in 150 μl of FACS buffer, pelleted and resuspended in 50 μl of the solution containing the primary antibody comprising a BEL extract of Fabs, a diluted BEL extract or purified antibody diluted in FACS buffer and incubated on ice for 30 min. Cells are washed again in FACS buffer and resuspended in 50 μl of FACS buffer containing the secondary antibody (R-Phycoerythrin-conjugated Affipure F(ab′)₂ Fragment Goat Anti-Human IgG, Dianova) and incubated on ice for 45 min. Cells are washed twice with FACS buffer and resuspended in 200 μl of FACS buffer for analysis in the FACS Array (BD Biosciences).
On to B1, for which the binding result was “no binding (tested: 20 nM)”.
As for B2, the binding result was “no binding (tested: 20 nM)”.
For the molecule B3, the binding result is listed as “no binding (tested: 20 nM)”.

A further assay concerns the target T1, human NPRA on HEK293 cells bound to ANP. In words: FACS, IgG4_Pro on HEK NPRA cells in the presence of 100 nM ANP.
Description: as §1
Turning to B1, the EC50 amounted to 0.68 nM.
The same measure, in the same setting: for B2 the value was 0.73 nM.
The same measure, in the same setting: under B3 stands 0.52 nM.

Another assay deals with T7, NPRA-Fc fusion protein bound to BNP (human, UniProt P16860 103-134).
T7 construct: mature; Receptor-ligand complex; also called NPRA-Fc in the presence of BNP
In words: SPR (Biacore 3000), NPRA-Fc amine-coupled on CM5, IgG with 100 nM human BNP.
Description: In another assay, the purified human NPRA-Fc fusion protein construct is used to develop a surface plasmon resonance (BIAcore) assay for determining affinity and kinetic constants for the antibodies. NPRA-Fc in 10 mM sodium acetate buffer, pH 5.5 is immobilized on a CM5 chip in a Biacore 3000 instrument (GE Healthcare, Biacore, Inc.) through amine coupling at a density of 1000 RU. […] The collected association and dissociation data from each experiment is globally fitted with the association (kₐ) and dissociation (kd) rates fit simultaneously.
In the case of B1, the affinity, expressed as Kd, was 0.413 nM; the off-rate (koff) was 0.000563 s⁻¹; the on-rate constant (kon) worked out at 1.36e+06 M⁻¹ s⁻¹.
In the same order, the values of B2 are 0.38 nM, 0.00102 s⁻¹ and 2.69e+06 M⁻¹ s⁻¹.
As for B3, the Kd was found to be 0.0459 nM, the koff came out at 0.00034 s⁻¹ and the association rate constant (kon) amounted to 7.42e+06 M⁻¹ s⁻¹.

The target of another assay is T3, human NPRC on HEK293 cells in the …. In words: FACS, HEK NPRC cells with 100 nM BNP.
Description: as §1
For the molecule B1, the binding result is on record as “no binding (tested: 20 nM)”.
Consider B2, for which the binding result is “no binding (tested: 20 nM)”.
Turning to B3, the binding result is “no binding (tested: 20 nM)”.

A further assay has as its target T4, human NPRC on HEK293 cells in the …. In words: FACS, HEK NPRC cells with 100 nM ANP.
Description: as §1
Take B1: the binding result is listed as “no binding (tested: 20 nM)”.
For the molecule B2, the binding result was “no binding (tested: 20 nM)”.
On the same count and under the same terms, for B3 the value was “no binding (tested: 20 nM)”.

By Kd is commonly meant the equilibrium constant for the complex coming apart. As usually defined, the koff is a measure of how fast the partners let go of each other. A higher koff goes with fast dissociation. Broadly, the kon is a measure of how fast the partners come together. The low end stands for slower complex formation, the high end for faster complex formation. What is called EC50 is the concentration needed to bring the measured effect to its halfway point.
